Test results reported in patent US20110201105A1, “LACTATION-ASSOCIATED POLYPEPTIDES” (Dairy Australia Limited, priority 2007, published 2011).
“Also recorded” adds a separate entry of the source.

Tests used:
[1] = system: chicks; assay: Chick growth assay (in ovo injection, weight at hatching); assay type: in vivo
Experimental: FIG. 5. Chick growth assay by measuring weight. 10 LAMs (being bovine homologues having homology to specific Tammar ESTs), 3 known bovine cathelicidins, and four bovine cathelicidin variants were tested. Conditioned media containing a LAM polypeptides or bovine cathelicidins or variants thereof was diluted in a total of 1 ml of normal saline. Eggs on day 16 of incubation were injected with 1 ml of the media containing the into the broad end of the egg. Chicks were weighed on day of hatching. The overall condition of the chick was assessed including the possible presence of stumpy legs and/or loss of down feathers.
Conditioned media containing LAM polypeptides or bovine cathelicidins or variants thereof were diluted in a total of 1 ml of normal saline. Eggs on day 16 of incubation were injected in ovo with 1 ml of LAM polypeptides or bovine cathelicidins or variants thereof into the broad end of the egg. Chicks were weighed on day of hatching. Controls included saline only, or saline and 10 mg/ml of a peptide as a random peptide control.
As set out in Table 23, the left column indicates the polypeptide used in the assay while the right column contains chick weight in grams as a measurement of chick growth. Bolded numbers represent a chick(s) larger than the controls and more than 2 standard deviations from the mean. In addition, bolded numbers represent chicks that have been killed. The mean represents the weight of all the chicks tested within this experiment.

[2] = system: mouse embryonic stem (ES) cells; assay: Cellular differentiation assay, mouse ES cells with Oct4-βgal transgene; assay type: cell-based; conditions: tammar wallaby polypeptides, LIF 1000 U/ml, 1:5 dilution, 48 hours (FIG. 7)
Experimental: FIG. 7. Cellular differentiation assay. To determine the ability of LAMs to influence cell differentiation, mouse embryonic stem (ES) cells were cultured in the presence of leukemia inhibitory factor (LIF) 1000 U/ml and the LAM in question a 1 in 5 dilution of the secreted polypeptides and cultured for 48 hours. […] This figure contains Panel A (Negative control) and Panels B to L (Presence of a LAM for which one LAM polypeptide is represented in one panel).
To determine the ability of LAMs to influence cellular differentiation, mouse embryonic stem (ES) cells were cultured in the presence of a leukemia inhibitory factor (LIF) 1000 U/ml and a 1:5 dilution of the secreted polypeptide LAMs for 48 hours.

[3] = system: trefoil 1; assay: Induction of trefoil proteins in AGS cells (peroxidase immunodetection); assay type: cell-based, human
Experimental: FIGS. 11A and B: Peroxidase assay for trefoil activity. Supematants of HEK293 cells expressing tammar mammary clones were applied to the human gastric epithelial cell line, AGS, for 48 hours. The resultant AGS cell conditioned media containing stimulated AGS cell secreted proteins, and the AGS cells, were lysed. Samples of the AGS cell secreted proteins and cell lysates, and a recombinant positive control were transferred to a solid support and probed using a rabbit anti-trefoil 1 antibody and a secondary goat anti-rabbit antibody conjugated to horse radish peroxidase was used to detect the trefoil 1. A: Detection of secreted trefoil 1 in supematants from stimulated AGS cells. B: Detection of expression of trefoil 1 in stimulated AGS cell lysate samples.
In addition, supernatants of HEK293 cells expressing tammar mammary clones were applied to the human gastric epithelial cell line, AGS, for 48 hours. The resultant AGS cell conditioned media containing stimulated AGS cell secreted proteins (i.e. supernatant) were collected and the AGS cells were lysed. […]

[4] = system: p38 MAPK; assay: p38 MAPK assay of inflammatory activity in RAW macrophage cells; assay type: cell-based
Experimental: Plasmids containing Tammar wallaby LAMs were directionally cloned into the expression vector pCMV Sport 6.0, and then transfected into the human kidney cell line HK293. A total of 1 μg of LAM-containing plasmid DNA and 10 ng of pEGFP-C1 plasmid was introduced into 70% confluent HK293 cells in 2 cm^2 wells containing 500 ul of opti-MEM-1 media. Transfection success was assessed by observing green fluorescence of cells by fluorescent microscopy. After 48 hours conditioned media containing the secreted polypeptide was collected and frozen at −20° C. The media containing the secreted polypeptides was then used directly in a variety of bioactivity assays. For the assays described below, samples of secreted polypeptides were aliquoted into individual wells of 96 or 384 well plates and stored, prior to assaying, either frozen or lyophilized.
A negative control created by transfection with an insertless vector was used in all assays. For the assays described in Examples 4A, 4B, 4C and 4D results for samples were in the form of relative fluorescence units (RFU) as described herein. […] In some cases, RFU less than two standard deviations from the mean were considered significant if the LAM sample in question produced a positive result in another assay. […]
Activation of p38 MAPK was assessed in RAW macrophage cells. […]

[5] = system: mouse ES cells; assay: Cell growth with cathelicidins in mouse ES cells; assay type: cell-based; design: cell growth Rep. 1 / cell growth Rep. 2 / cell growth Rep. 3 / cell growth Mean: unit not given here; conditions: 24 hours
Experimental: Mouse ES cells were plated at 50 percent confluency and cultured for 24 hours in a 1:10 dilution of serum and antibiotic free Optimem and media conditioned with cathelicidin associated polypeptides. The medium was removed and then washed gently for 2 minutes with Mg^2+- and Ca^2+-free phosphate buffered saline 0.05% Trypsin and 1:5000 Versene to disrupt cell aggregates. Cells were collected by scraping and washed twice by resuspension in complete medium followed by centrifugation. The cells were again resuspended and counted in triplicate using a Luber haemocytometer.
(§1) The cells were counted in triplicate using a Luber haemocytometer. The negative control was media alone (i.e. conditioned media […] insertless vector). The samples were deemed statistically significant using a t-test comparing the control with the sample if the values of cell growth were 2 standard deviations higher than the mean of the negative control.

[6] = system: ERK1/2; assay: ERK1/2 activation in Swiss 3T3 cells by bovine polypeptides; assay type: cell-based; conditions: cell supernatants containing bovine polypeptide, listed as CAMP
Experimental: Swiss 3T3 cells were treated with cell supematants containing bovine TCN 1 polypeptide. […] An increase in relative fluorescence units over the control indicates ERK activation.
Aliquots of the CRC-IDP samples were used to activate HSC-2 cells in a 96 well plate. Confluent and serum-starved cells were presented with the samples at a final dilution of 1:2. Cells were also stimulated with an internal control for activation of cells (Stim=10% serum) or left unstimulated (unstim). After 10 minutes with the CRC-IDP samples or control stimulus, cells were lysed and assayed for ERK activation using TGR's proprietary assay technology (SureFire). FIG. 12 presents the results as the mean+/−SEm of 3 separate samples. The data is from a single experiment.

[7] = system: HC11 cells; assay: Cell growth with cathelicidins in HC11 cells; assay type: cell-based, mouse; design: cell growth Rep. 1 / cell growth Rep. 2 / cell growth Rep. 3 / cell growth Rep. 4 / cell growth Mean: unit not given here; conditions: 72 hours
Experimental: FIG. 2. Cellular growth assay with HC11 cells. Mouse mammary epithelial cells, HC11 cells, were grown in media conditioned with: mock transfection (control), LAM32, LAM32a or LAM32b for 72 hours. Samples were performed in triplicate and the cells from each triplicate counted in triplicate. […] LAM 32 is represented as set forth in SEQ ID NO: 188, and two splice variants thereof, designated LAM32a and 32b as set forth in SEQ ID NO: 215 and 207 respectively.
As shown in FIG. 2 equal numbers of mouse mammary HC11 cells were grown in the presence of either a negative control or tammar wallaby cathelicidin-associated polypeptide, namely LAM 32 (SEQ ID NO: 188), LAM 32a (SEQ ID NO: 215) or LAM 32b (SEQ ID NO: 207) in order to determine the effect of these LAMs on cellular growth.
HC11 cells were initially plated at 50 percent confluency and cultured for 72 hours in a 1:10 dilution of serum and antibiotic free Optimem and media conditioned with cathelicidin associated polypeptides. The medium was removed and then washed gently for 2 minutes with Mg^2+- and Ca^2+-free phosphate buffered saline (PBS), 0.05% Trypsin and 1:5000 Versene to disrupt cell aggregates. Cells were collected by scraping and washed twice by resuspension in complete medium followed by centrifugation. The cells were again resuspended and counted in triplicate using a Luber haemocytometer.
as §1

[8] = system: bovine mammary epithelial cells; assay: Cellular morphology assay, bovine mammary epithelial cells; assay type: cell-based; conditions: 1:5 dilution of secreted polypeptide, 48 hours (FIG. 6)
Experimental: FIG. 6. Cellular morphology assay. To determine the ability of LAMs to influence cellular morphology, bovine mammary epithelial cells were plated onto a extracellular matrix and the cells were subsequently allowed to migrate to form mammospheres in the presence or absence of each LAM. The figure contains Panel A (Negative control) and Panels B to G (Presence of a LAM for which one LAM polypeptide is represented in one panel).
Candidate LAM polypeptides that are able to regulate the function and differentiation of the mammary gland were screened by culturing bovine mammary epithelium in the presence of a 1:5 dilution of the secreted polypeptide LAMs for 48 hours as described for the TGR assays in Example 4. Cells were examined microscopically for gross morphological changes and for their ability to induce cell differentiation.

Molecule	chick size versus controls ([1]; body weight relative to mean/median of all chicks tested)	Chick weight ([1]; bovine polypeptides in conditioned media, 1 ml in ovo on day 16 of incubation, weighed on day of hatching, Saline 51.0)	cellular differentiation [2]	Trefoil-inducing activity: Function ([3]; 48 hours, trefoil 1 in supernatant (secretion) and cell lysate (expression))	trefoil 1 expression and/or secretion ([3]; Table 16)	RFU (p38 activation, pro-inflammatory activity) ([4]; 30 minutes, Mean RFU 12253, SD RFU 7395, negative control 11004 RFU)	pro-inflammatory activity (RFU significantly above the mean) ([4]; text summary of Tables 12 and 13)	cell growth Rep. 1 ([5]; 1:10 dilution conditioned media, -ve control 0.34)	cell growth Rep. 3 ([5]; -ve control 0.352)	cell growth Rep. 2 ([5]; -ve control 0.474)	cell growth Mean ([5]; -ve control mean 0.388666667)	ERK1/2 activation [6]	cell growth Rep. 1 ([7]; 1:10 dilution conditioned media, -ve control 0.727)	cell growth Rep. 2 ([7]; -ve control 0.76)	cell growth Rep. 3 ([7]; -ve control 0.786)	cell growth Rep. 4 ([7]; -ve control 0.808)	cell growth Mean ([7]; -ve control mean 0.77025)	cell growth versus control (significance) ([7]; P<0.05 t-test)	influence on cellular morphology [8]
LAM 19: EBP: Emopamil binding protein (sterol isomerase); tammar polypeptide SEQ ID NO 49, bovine SEQ ID NO 109 (protein, X: residue not identified in the source; ends and bridges not checked) MTTNTSPMHPYWPRHLRLDNFVPNDYPTWHILAGLFSVSGVLVVATWLLSGRAAVVPLGTWRRLSLCWFAVCGFIHLVIEGWFSLYHADLLGDQAILSQLWKEYAKGDSRYILNDNFMICMETVTAYLWGPLSLWVVIAFLRHQPLRFVLQLVVSMGQVYGDVLYFLTEYRDGFQHGELGHPLYFWFYFVFLNSLWLVVPGLLILDSIKQLAHAQSILDAKAPKAKSKQXLKSDELGLNTGYEELSTYQKIPILAPTGRKDKLN	falls just outside 2 standard deviations from the median of chick weights	57.1 grams	induced cellular differentiation	enhanced expression and secretion	enhance trefoil 1 expression in AGS cells as well as enhance the secretion of trefoil 1	66112 RFU	pro-inflammatory activity	–	–	–	–	–	–	–	–	–	–	–	–
LAM 32: Cathelicidin antimicrobial peptide; tammar wallaby polypeptide SEQ ID NO 188, bovine SEQ ID NO 220 (protein) QALSYREAVLRAVDQLNEQSSEPNIYRLLELDQPPQDDEDPDSPKRVSFRVKETVCSRTTQQPPEQCDFKENGLLKRCEGTVTLDQVRGNFDITCNNHQSIRITKQPWAPPQAARLCRIVVIRVCR	–	–	–	–	–	–	–	0.721	0.784	0.548	0.6843	activates ERK1/2; also recorded: ERK1/2 activation	0.985	0.927	0.968	1.026	0.9765	significantly more cells	induced a significant change in quaternary structure and/or cellular morphology
